Laboratory results published in patent US20240182549A1, “PEPTIDES AND ANTIBODY FUSIONS THAT BIND TO SARS-COV-2 AND METHODS OF USING SAME” (priority 2021, published 2024).

Assays:
[1] = target: S protein of authentic (isogenic) SARS-CoV-2 variant B.1.351, on virus (SARS-CoV-2) (UniProt P0DTC2); assay: cell-based or functional assay
[2] = target: S protein of authentic SARS-CoV-2 variant D614G, on virus (SARS-CoV-2) (UniProt P0DTC2); assay: cell-based or functional assay

Substance IgG REGN10933 (antibody) has an IC50, focus reduction neutralization test [1] of over 1000 ng/mL and an IC50, focus reduction neutralization test [2] of 10 ng/mL.
